Measured values reported in PMC3564914, “Transcriptome analysis of bitter acid biosynthesis and precursor pathways in hop (Humulus lupulus)” (BMC Plant Biology, 2013).

B1: HlBCAT2 (Humulus lupulus) (protein)
chain: NATLSDTYSETVELADIDWDNLGFGFLPTDYMYNMKCAQGESFSNGELQRFGNIELSPSAGVLNYGQGLFEGLKAYRKEDGNILLFRPEENALRMRLGAERMCMPSPTVDQFVDAVKATVLANKRWIPPVGKGSLYIRPLLMGSGAVLGLAPAPEYTFLIYVSPVGNYFKEGVAPIHLIVEDNLHRATPGGTGGVKTIGNYAAVLKAQSAAKEQGYSDVLYLDCVHKKYLEEVSSCNIFVVKGNLIFTPAIKGTILPGITRKSIIDVARTLGFQVEERLVHVDELLDADEVFCTGTAVVVSPVGSITYHGERVPYNEGGVGAVSQQLYSALTRLQMGFIKDNMNWTVELS
notes: N-terminal vector His tag (pHIS8/GW), E. coli BL21(DE3) Rosetta2 pLysS, Talon purified
B2: HlBCAT1 (Humulus lupulus) (protein)
chain: SSTSLAKSSLKQSCELSCKSNTEPSNMDWDKLGFKLMPTDYVYSMKCSNEGNFEQGRLELHGNIELSPAAAVLNYGQGIFEGTKAYRKEDGSLLLFRPDQNGVRMRIGAERMCMPSPSVDQFVDAVKQTAIANRRWVPPSGKGSLYIRPLLMGTGAVLGVAPAPQYTFLAYASPVGNYFKEGLAPLRLYVEDEFDRASPGGTGFVKTIGNYSRCLAALSRAKNKGFSDVLFLDSVHKKYVEELSSCNIFIVQGNQISTPAANGTILSGVTRSSIIEIARDHGFKVEERKIAVDELMEAEEVFCTGTAVGVASVGSITYHNKRVEFKTGSQSVSQKFYSTLIGIQTGVVEDKKGWIVEID
notes: as for B1

Key:
Experiment in all cases: purified protein
Assay type in all cases: biochemical, Humulus lupulus
purified protein [1] = substrate: CC(C)[C@H](N)C(=O)O; details: catabolic direction, 2 mM 2-oxoglutarate, 50 μM PLP, Tris HCl pH 8.5, 22°C
purified protein [2] = substrate: CC[C@H](C)C(=O)C(=O)O; details: anabolic direction, 2 mM glutamate, 50 μM PLP, 100 mM ammonium chloride, Tris HCl pH 8.5, 22°C
purified protein [3] = substrate: N[C@@H](CCC(=O)O)C(=O)O; details: anabolic direction, 0.5 mM ketoisovalerate, 50 μM PLP, 100 mM ammonium chloride, Tris HCl pH 8.5, 22°C
purified protein [4] = substrate: CC[C@H](C)[C@H](N)C(=O)O; details: catabolic direction, 2 mM 2-oxoglutarate, 50 μM PLP, Tris HCl pH 8.5, 22°C
purified protein [5] = substrate: CC(C)C[C@H](N)C(=O)O; details: catabolic direction, 2 mM 2-oxoglutarate, 50 μM PLP, Tris HCl pH 8.5, 22°C
purified protein [6] = substrate: O=C(O)CCC(=O)C(=O)O; details: catabolic direction, 2 mM leucine, 50 μM PLP, Tris HCl pH 8.5, 22°C
purified protein [7] = substrate: CC(C)CC(=O)C(=O)O; details: anabolic direction, 2 mM glutamate, 50 μM PLP, 100 mM ammonium chloride, Tris HCl pH 8.5, 22°C
purified protein [8] = substrate: CC(C)C(=O)C(=O)O; details: anabolic direction, 2 mM glutamate, 50 μM PLP, 100 mM ammonium chloride, Tris HCl pH 8.5, 22°C

Row | Protein | Km (purified protein [1]) [µM] | Vmax (purified protein [1]) [µmol/min/mg] | Km (purified protein [2]) [µM] | Vmax (purified protein [2]) [µmol/min/mg] | Km (purified protein [3]) [µM] | Vmax (purified protein [3]) [µmol/min/mg] | Km (purified protein [4]) [µM] | Vmax (purified protein [4]) [µmol/min/mg] | Km (purified protein [5]) [µM] | Vmax (purified protein [5]) [µmol/min/mg] | Km (purified protein [6]) [µM] | Vmax (purified protein [6]) [µmol/min/mg] | Km (purified protein [7]) [µM] | Vmax (purified protein [7]) [µmol/min/mg] | Km (purified protein [8]) [µM] | Vmax (purified protein [8]) [µmol/min/mg]
1 | B1 | 130 ± 27.74 | 23.3 | 160 ± 11.63 | 84.7 | 690 ± 88.51 | 136 | 250 ± 41.07 | 88.1 | 280 ± 69.56 | 43.4 | 210 ± 58.86 | 36.9 | 120 ± 11.43 | 119 | 200 ± 11.72 | 96.4
2 | B2 | 340 ± 90.94 | 12.6 | 99 ± 10.75 | 2.95 | 720 ± 55.59 | 5.59 | 230 ± 26.94 | 19.4 | 40 ± 9.20 | 4.84 | 30 ± 5.39 | 4.5 | 35 ± 3.27 | 4.5 | 99 ± 6.53 | 4.23
